± gives the standard deviation.
Test: protein stability index of a GFP-peptide fusion (GPS, HEK-293T) (PSI 1-6); higher = more stable
[1] = treatment: DMSO, c terminus: a fixed tail appended
[2] = treatment: MLN4924 1 uM, 8 h, c terminus: a fixed tail appended
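Further: 24-mer peptide tiles fused after GFP, lentivirally expressed, FACS-sorted into six equal bins by GFP/DsRed ratio, decoded by Illumina sequencing, PSI is the read-weighted mean bin number.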

Sequence: YKVRHVHWKTWLAIKCSPSLHVDD [RIPK4]
- protein stability index [1]: 2.16 ± 0.34
- protein stability index [2]: 1.98 ± 0.44

Sequence: RWLMVKIFLILIVFFIIFVVFLA [STX5]
- protein stability index (treatment: DMSO, c terminus: native): 4.3 ± 0.23
- protein stability index (treatment: MLN4924 1 uM, 8 h, c terminus: native): 4.31 ± 0.33

Sequence: DLIESDPDAWCDLSKFDLPEEPSA [MYBL2]
- protein stability index [1]: 5.01 ± 0.35
- protein stability index [2]: 5.02 ± 0.17

Sequence: NNGIFQINSRRWCSNLTPNVPNVC [SPACA3]
- protein stability index [1]: 2.6 ± 0.28
- protein stability index [2]: 2.63 ± 0.25

Sequence: PIGILTTSYCELLQNKVPLLGSST [PPTC7]
- protein stability index [1]: 2.63 ± 0.53
- protein stability index [2]: 2.66 ± 0.47

Sequence: MERRRLRGSIQSRYISMSVWTSPR [PRAME]
- protein stability index [1]: 2.64 ± 0.28
- protein stability index [2]: 2.73 ± 0.38

Sequence: EDQYIFIHDALLEAVTCGNTEVPA [PTPRD]
- protein stability index [1]: 3.1 ± 0.32
- protein stability index [2]: 3.01 ± 0.31

Sequence: RYPELDTPKLDCFLSGMEAAPRTL [TBX6]
- protein stability index [1]: 3.5 ± 0.27
- protein stability index [2]: 3.58 ± 0.2

Sequence: VGFRLCNSTGGDCFYRGYTSGVAA [SCNN1D]
- protein stability index [1]: 2.01 ± 0.58
- protein stability index [2]: 1.94 ± 0.54

Sequence: LPISTVREVALLRRLEAFEHPNVV [CDK4]
- protein stability index [1]: 2.62 ± 0.21
- protein stability index [2]: 2.71 ± 0.45

Sequence: LNVATFLDPRYKRLPFLSAFERQQ [ZBED1]
- protein stability index [1]: 2.37 ± 0.086
- protein stability index [2]: 2.43 ± 0.42

Sequence: ADGSPPLLPPGEPPLLGTFPRDHT [ANKRD40]
- protein stability index [1]: 4.8 ± 0.28
- protein stability index [2]: 4.49 ± 0.21

Sequence: PEEKKEEEGSANRRPEDQELESLS [CHGA]
- protein stability index [1]: 5.58 ± 0.34
- protein stability index [2]: 5.71 ± 0.12

Sequence: ELAGVDTELLAERFYYQALSVAPQ [SMG5]
- protein stability index [1]: 2.68 ± 0.25
- protein stability index [2]: 2.88 ± 0.16

Sequence: KPILLQRMEGSQEVVNMAVIVPKE [WDFY2]
- protein stability index [1]: 3.7 ± 0.09
- protein stability index [2]: 3.54 ± 0.4

Sequence: INLEGKTFYSKKDRPLCKSHAFSH [PDLIM7]
- protein stability index [1]: 2.55 ± 0.077
- protein stability index [2]: 2.71 ± 0.33

Sequence: LPIKIAAIIASLTFLYTLLREVIH [STEAP1]
- protein stability index [1]: 2.53 ± 0.41
- protein stability index [2]: 1.82 ± 0.64

Sequence: VERDNMEEDNVEESEEEGPWEPPV [HDAC6]
- protein stability index [1]: 5.58 ± 0.19
- protein stability index [2]: 5.25 ± 0.21

Sequence: APDSGRSAPYSAAFLELPHGSGGS [TBX6]
- protein stability index [1]: 4.3 ± 0.17
- protein stability index [2]: 4.46 ± 0.066

Sequence: AARLLFNMAGVTFRKFIPKCSKIV [DCTD]
- protein stability index [1]: 1.97 ± 0.15
- protein stability index [2]: 2 ± 0.18

Sequence: IDYKTTTILLDGRRVKLQLWDTSG [RAB40B]
- protein stability index [1]: 2.42 ± 0.12
- protein stability index [2]: 2.56 ± 0.24

Sequence: EEPRPSRPRYKADVPDLQSVCSCT [KCNK9]
- protein stability index [1]: 4.62 ± 0.13
- protein stability index [2]: 4.55 ± 0.19

Sequence: PHAPPFAGGHPAQLGLGRGASTFK [JUNB]
- protein stability index [1]: 4.11 ± 0.083
- protein stability index [2]: 4.34 ± 0.066

Sequence: NSSEELSSALHLSKGMSIFLDILR [NECAB1]
- protein stability index [1]: 2.38 ± 0.13
- protein stability index [2]: 2.54 ± 0.21

Sequence: RQSLEGLSVRSVFFGVFQSFVVLL [CLPTM1]
- protein stability index [1]: 2.04 ± 0.14
- protein stability index [2]: 1.99 ± 0.25

Sequence: SIVIFCLETLPEFRDEKDYPASTS [KCNA3]
- protein stability index [1]: 2.4 ± 0.54
- protein stability index [2]: 2.19 ± 0.45

Sequence: SELIVHIFSFLPAPDRLRASASCS [FBXO33]
- protein stability index [1]: 2.76 ± 0.14
- protein stability index [2]: 1.94 ± 0.35

Sequence: DSYIPLHEDLLTRIGEATKPDGTV [NET1]
- protein stability index [1]: 4.5 ± 0.43
- protein stability index [2]: 4.73 ± 0.28

Sequence: YMVRRYFNKPSRVPAPEAFRDPIW [MYORG]
- protein stability index [1]: 2.27 ± 0.25
- protein stability index [2]: 2.12 ± 0.39

Sequence: TSSPAIWKFPVPVLKTSRSTPLSP [KLHL13]
- protein stability index [1]: 3.19 ± 0.21
- protein stability index [2]: 3.32 ± 0.086

Sequence: MDIKNSPSSLNSPSSYNCSQSILP [ESR2]
- protein stability index [1]: 3.8 ± 0.19
- protein stability index [2]: 3.93 ± 0.29

Sequence: ENCTLVTTFRGHTGGVTALCWDPV [WDFY2]
- protein stability index [1]: 2.53 ± 0.32
- protein stability index [2]: 2.38 ± 0.18

Sequence: PSRREPPPRRSRSRSHDRLPYQRR [CLK3]
- protein stability index [1]: 5.23 ± 0.19
- protein stability index [2]: 5.23 ± 0.14

Sequence: AFNQNSSLGRHKRTHTGEKPYTCS [ZNF8]
- protein stability index [1]: 3.42 ± 0.33
- protein stability index [2]: 3.79 ± 0.49

Sequence: QPVPNTTEPDYKSKDWVFLNYTYK [STK38L]
- protein stability index [1]: 3.33 ± 0.63
- protein stability index [2]: 3.14 ± 0.31

Sequence: LQQIQGLIGGLEAQLSELRCEMEA [KRT15]
- protein stability index [1]: 3.52 ± 0.43
- protein stability index [2]: 3.67 ± 0.41

Source: the supplement of paper PMC10567573
